According to patent publication US20180250395A1 (Janssen / Centocor, published 2018):
Numbering of substitutions follows the chain as printed.

B1: C47B147 (antibody, V domains shown)
VH: EVQLVQSGAEVKKPGESLKISCKGSGYTFTDYNMHWVRQMPGKGLEWMGDIYPYNGGTGYNQKFKGQVTISADKSISTAYLQWSSLKASDTAMYYCARGGWHAMDSWGQGTLVTVSS
VL: DIVMTQSPDSLAVSLGERATINCRSRQSIVHTNRYTYLAWYQQKPGQPPKLLIYKVSNRFSGVPDRFSGSGSGTDFTLTISSLQAEDVAVYYCFQGSHVPYTFGGGTKLEIK
notes: HFA variant of C47B116; human IgG2sigma/kappa
B2: C47B151 (antibody, V domains shown)
VH: QVQLVQSGAEVKKPGSSVKVSCKASGYTFTDYNMHWVRQAPGQGLEWMGDIYPYNGGTGYNQKFKGRVTITADESTSTAYMELSSLRSEDTAVYYCARGGWHAMDSWGQGTLVTVSS
VL: B1 VL
notes: as for B1
B3: C47B230 (antibody, V domains shown)
VH: EVQLVQSGAEVKKPGESLKISCKGSGYSFTDDWIGWVRQMPGKGLEWMGIIYPGDSDTRYSPSFQGQVTISADKSISTAYLQWSSLKASDTAVYYCARVGRFASHQLDYWGQGTLVTVSS
VL: EIVLTQSPATLSLSPGERATLSCRASQSVNKALAWYQQKPGQAPRLLIYGASNRATGIPARFSGSGSGTDFTLTISSLEPEDFAVYYCQQGKGWPFTFGQGTKVEIK
notes: human IgG2sigma/kappa
B4: C47B244 (antibody, V domains shown)
VH: B3 VH with T30D, D32Y
VL: B3 VL with N30S, K31N, A32R, K92R, G93S
notes: human IgG2sigma/kappa
B5: C47B237 (antibody, V domains shown)
VH: B3 VH with D31S, D32Y, V93M
VL: B3 VL with K31N, A32R, Y49H, G50W, N53T, T56I, K92A, G93S
notes: human IgG2sigma/kappa
B6: C47B238 (antibody, V domains shown)
VH: B3 VH with D31S, D32Y, V93M
VL: B3 VL with N30G, K31S, A32R, G50W, N53T, K92A, G93Y
notes: human IgG2sigma/kappa
B7: C47B232 (antibody, V domains shown)
VH: B3 VH with D31N, D32Y
VL: B3 VL with K31N, A32R, Y49H, G50W, N53T, T56I, K92A, G93S
notes: human IgG2sigma/kappa
B8: C47B234 (antibody, V domains shown)
VH: B3 VH with T30D, D31N, D32Y
VL: B3 VL
notes: human IgG2sigma/kappa
B9: C47B239 (antibody, V domains shown)
VH: B3 VH with D31S, D32Y, V93M
VL: B3 VL with N30S, K31N, A32R, K92R, G93S
notes: human IgG2sigma/kappa
B10: C47B240 (antibody, V domains shown)
VH: B3 VH with D31S, D32Y, V93M
VL: B3 VL with N30S, K31N, A32R, L33Q, Y49H, G50S, K92R, G93S
notes: human IgG2sigma/kappa
B11: C47B241 (antibody, V domains shown)
VH: B3 VH with T30D, D32S
VL: B3 VL with N30S, K31N, A32R, K92R, G93S
notes: human IgG2sigma/kappa
B12: C47B236 (antibody, V domains shown)
VH: B3 VH with T30K
VL: B3 VL
notes: human IgG2sigma/kappa
B13: C47B243 (antibody, V domains shown)
VH: B3 VH with D32Y
VL: B3 VL with N30S, K31N, A32R, K92R, G93S
notes: human IgG2sigma/kappa
B14: C47B235 (antibody, V domains shown)
VH: B3 VH with T30D, D32Y, G35S
VL: B3 VL
notes: human IgG2sigma/kappa
B15: C47B233 (antibody, V domains shown)
VH: B3 VH with D31N, D32Y
VL: B3 VL with N30G, K31S, A32R, G50W, N53T, K92A, G93Y
notes: human IgG2sigma/kappa
B16: C47B231 (antibody, V domains shown)
VH: B3 VH with D31N, D32Y
VL: B3 VL
notes: human IgG2sigma/kappa
B17: C47B242 (antibody, V domains shown)
VH: B3 VH with D32S
VL: B3 VL with N30S, K31N, A32R, K92R, G93S
notes: human IgG2sigma/kappa
B18: C47B148 (antibody, V domains shown)
VH: B1 VH
VL: EIVLTQSPATLSLSPGERATLSCRSRQSIVHTNRYTYLAWYQQKPGQAPRLLIYKVSNRFSGIPARFSGSGSGTDFTLTISSLEPEDFAVYYCFQGSHVPYTFGGGTKLEIK
notes: as for B1
B19: C47B152 (antibody, V domains shown)
VH: B2 VH
VL: B18 VL
notes: as for B1
B20: C47B167 Fab (Fab, V domains shown)
VH: EVQLVQSGAEVKKPGESLKISCKGSGYTFTSYWMQWVRQMPGKGLEWMGEINPSNGRTDYNEKFRGQVTISADKSISTAYLQWSSLKASDTAMYYCARQGGSGYGNSYGFFDVWGQGTTVTVSS
VL: EIVLTQSPATLSLSPGERATLSCRASSSVSYMHWYQQKPGQAPRLLIYDTSRLASGIPARFSGSGSGTDFTLTISSLEPEDFAVYYCQQWRSNPYTFGGGTKVEIK
notes: His-tagged Fab from HEK293
B21: B6H12.2 Fab (Fab, V domains shown)
VH: EVKLVESGGDLVKPGGSLKLSCAASGFTFSGYGMSWVRQTPDKRLEWVATITSGGTYTYYPDSVKGRFTISRDNAKNTLYLQIDSLKSEDTAIYFCARSLAGNAMDYWGQGTSVTVSS
VL: DIVMTQSPATLSVTPGDRVSLSCRASQTISDYLHWYQQKSHESPRLLIKFASQSISGIPSRFSGSGSGSDFTLSINSVEPEDVGVYYCQNGHGFPRTFGGGTKLEIK
notes: Fab used for co-crystallization
B22: C47B161 Fab (Fab, V domains shown)
VH: B2 VH with S16A, G44R, A72R, E74T, T76A
VL: DIVMTQSPLSLPVTPGEPASISCRSRQSIVHTNRYTYLAWYLQKPGQSPQLLIYKVSNRFSGVPDRFSGSGSGTDFTLKISRVEAEDVGVYYCFQGSHVPYTFGGGTKLEIK
B23: C47B222 Fab (Fab, V domains shown)
VH: B3 VH with D32Y
VL: B3 VL with K31N, A32R, Y49H, G50W, N53T, T56I, K92A, G93S
notes: His-tagged Fab from HEK293
B24: C47B227 Fab (Fab, V domains shown)
VH: B3 VH with T30D, D32Y
VL: B3 VL with N30G, K31S, A32R, G50W, N53T, K92A, G93Y
notes: His-tagged Fab from HEK293

Target: T1, recombinant human CD47 extracellular domain (ECD), His-tagged, monomer (human, UniProt Q08722 19-141)
T1 construct: C-terminal 6xHis tag; monomeric fraction from Superdex 200; also called human CD47 ECD; CD47-ECD monomer
Assay: ProteOn SPR

fold decrease of affinity against parent C47B116 [fold] | Binder
> 6 | B1
> 6 | B2

Target: T2, Cyno CD47 ECD protein, His-tagged, monomer (cyno)
T2 construct: extracellular domain; also called cynomolgus CD47
Assay: ProteOn SPR; cyno KD / human KD

KD Ratio Cyno/Human | Binder
1.4 | B1
1.4 | B2

Target: T2, Cyno CD47 ECD protein, His-tagged, …
Assay: ProteOn SPR; cyno KD / human KD
Remark: another data set of the same source

KD Ratio Cyno/Human | Binder
3.7 | B3
0.7 | B4
1.4 | B5
1.1 | B6
0.9 | B7
1.8 | B8
1.4 | B9
1.1 | B10
0.8 | B11
5 | B12
1 | B13
1.3 | B14
0.8 | B15
1.1 | B16
1 | B17

Target: T3, human CD47 on Jurkat cells (human, UniProt Q08722 19-323)
T3 construct: Endogenous CD47 of the cell lines; also called CD47-expressing Jurkat cells; CD47 on HL60 cells
Assay: MSD on Jurkat cells; blocks SIRP alpha-Fc binding

EC50 [µg/mL] | Binder
0.24 | B1
0.29 | B2
0.09 | B18
0.26 | B19

Target: T1, recombinant human CD47 extracellular …
Assay: ProteOn SPR; mAb captured, ECD monomer as analyte

Kd [nM] | Binder
9.55 | B1
6.89 | B2

Target: T2, Cyno CD47 ECD protein, His-tagged, …
Assay: ProteOn SPR; mAb captured, ECD monomer as analyte

Kd [nM] | Binder
13.5 | B1
9.34 | B2

Target: T1, recombinant human CD47 extracellular …
Assay: ProteOn SPR; mAb captured, ECD monomer as analyte
Remark: another data set of the same source

Kd [nM] | Binder
1.99 | B3
2.12 | B4
2.57 | B5
3.53 | B6
2.8 | B7
4.49 | B8
6.69 | B9
8.59 | B10
2.62 | B11
2.92 | B12
2.02 | B13
2.35 | B14
3.9 | B15
11.3 | B16
3.47 | B17

Target: T2, Cyno CD47 ECD protein, His-tagged, …
Assay: ProteOn SPR; mAb captured, ECD monomer as analyte
Remark: another data set of the same source

Kd [nM] | Binder
7.28 | B3
1.55 | B4
3.51 | B5
3.73 | B6
2.42 | B7
7.93 | B8
9.7 | B9
9.23 | B10
2.03 | B11
14.6 | B12
2.08 | B13
3.06 | B14
3.02 | B15
12.3 | B16
3.46 | B17

Target: CD47 ECD-C15G mutant, His-tagged (human, UniProt Q08722 19-141, N-terminus Q1 cyclized as pyroglutamate (C47B161 complex); glycans at 5, 16, 32, 55, 93 except in the endoH-deglycosylated C47B161 complex)
Assay: Fab:CD47 complex isolated by chromatography and crystallized
Description: The His-tagged CD47 was deglycosylated and further purified by affinity chromatography. The complex CD47:Fab was prepared by mixing Fabs with excess CD47 at a molar ratio ranging from 1.2:1.0 to 1.5:1.0. The complex was incubated overnight at 4° C., separated from the uncomplexed species using size exclusion chromatography, and concentrated to 7.5-20 mg/mL in 20 mM HEPES pH 7.4, 100 mM NaCl, 5% glycerol. The concentrated complex was then used to set up crystallization trials using the sitting drop method at 20° C. and crystals were optimized by varying the protein to reservoir ratio.

binding result | Binder
binds | B20
binds | B21
binds | B22
binds | B23
binds | B24

Target: T4, recombinant human CD47 extracellular domain (ECD), His-tagged, dimer (human, UniProt Q08722 19-141)
T4 construct: Dimeric fraction of the same His-tagged ECD; also called His-tagged CD47-ECD dimer protein
Assay: MSD; CD47-ECD dimer binding to captured SIRP alpha-Fc, mAb 10 µg/ml

% SIRP alpha Inhibition [%] | Binder
28.4 | B3
99.8 | B4
97.9 | B5
99.1 | B6
99.6 | B7
86.6 | B8
96.7 | B9
93 | B10
99.8 | B11
9.8 | B12
99.8 | B13
99.9 | B14
98.4 | B15
83.7 | B16
99.1 | B17
